{"source": "the supplement of paper PMC9233669", "key": {"[1]": {"test_system": "biotinyl-Val-oxazolone", "assay": "self-aminoacylation, catalytic enhancement (BVO) (fold over background); higher = more active; k-Seq, kA / k0A0; sequences stand for … in GGGAAUGGAUCCACAUCUACGAAUUC…UUCACUGCAGACUUGACGAAGCUG", "summary_of_the_method": "(§1)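 Each biotinyl-aminoacyl-oxazolone, at 2–1250 μM, was incubated with mutagenized RNA pools (0.43 μM) carrying a 21-nt variable region. The 50 μL reactions contained HEPES/NaCl/KCl/MgCl2/CaCl2 buffer with 5% acetonitrile at pH 6.9–7.0 and ran for 90 minutes at room temperature. After streptavidin capture, RNA was measured by qPCR in triplicate and by Illumina sequencing, and catalytic enhancement was calculated as median kA over the uncatalyzed rate from a pseudo-first-order fit of per-sequence fraction reacted.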"}, "[2]": {"test_system": "biotinyl-Phe-oxazolone", "assay": "self-aminoacylation, catalytic enhancement (BFO) (fold over background); higher = more active; k-Seq, kA / k0A0; sequences stand for … in GGGAAUGGAUCCACAUCUACGAAUUC…UUCACUGCAGACUUGACGAAGCUG", "summary_of_the_method": "as §1"}, "[3]": {"test_system": "biotinyl-Met-oxazolone", "assay": "self-aminoacylation, catalytic enhancement (BMO) (fold over background); higher = more active; k-Seq, kA / k0A0; sequences stand for … in GGGAAUGGAUCCACAUCUACGAAUUC…UUCACUGCAGACUUGACGAAGCUG", "summary_of_the_method": "as §1"}, "[4]": {"test_system": "biotinyl-Ile-oxazolone", "assay": "self-aminoacylation, catalytic enhancement (BIO) (fold over background); higher = more active; k-Seq, kA / k0A0; sequences stand for … in GGGAAUGGAUCCACAUCUACGAAUUC…UUCACUGCAGACUUGACGAAGCUG", "summary_of_the_method": "as §1"}, "[5]": {"test_system": "biotinyl-Leu-oxazolone", "assay": "self-aminoacylation, catalytic enhancement (BLO) (fold over background); higher = more active; k-Seq, kA / k0A0; sequences stand for … in GGGAAUGGAUCCACAUCUACGAAUUC…UUCACUGCAGACUUGACGAAGCUG", "summary_of_the_method": "as §1"}, "[6]": {"test_system": "biotinyl-Trp-oxazolone", "assay": "self-aminoacylation, catalytic enhancement (BWO) (fold over background); higher = more active; k-Seq, kA / k0A0; sequences stand for … in GGGAAUGGAUCCACAUCUACGAAUUC…UUCACUGCAGACUUGACGAAGCUG", "summary_of_the_method": "as §1"}}, "note": "Fewer inactive variants are shown than the library holds."}
{"sequence": "AUUCACCUAGGUCAUGGGGAG [Fam2.2 aminoacylation ribozyme variant]", "values": [{"measurement": "self-aminoacylation", "setting": "[1]", "value": 0.979}, {"measurement": "self-aminoacylation", "setting": "[2]", "value": 0.544}, {"measurement": "self-aminoacylation", "setting": "[3]", "value": 0.889}, {"measurement": "self-aminoacylation", "setting": "[4]", "value": 1.03}, {"measurement": "self-aminoacylation", "setting": "[5]", "value": 0.853}, {"measurement": "self-aminoacylation", "setting": "[6]", "value": 1.56}]}
{"sequence": "AUUCACCUAGGUCAUUGCGUG [Fam2.2 aminoacylation ribozyme variant]", "values": [{"measurement": "self-aminoacylation", "setting": "[1]", "value": 7.69}, {"measurement": "self-aminoacylation", "setting": "[2]", "value": 123}, {"measurement": "self-aminoacylation", "setting": "[3]", "value": 15.7}, {"measurement": "self-aminoacylation", "setting": "[4]", "value": 8.82}, {"measurement": "self-aminoacylation", "setting": "[5]", "value": 21.7}, {"measurement": "self-aminoacylation", "setting": "[6]", "value": 15.8}]}
{"sequence": "AUUCACCUAGGUCAUUGGCUG [Fam2.2 aminoacylation ribozyme variant]", "values": [{"measurement": "self-aminoacylation", "setting": "[1]", "value": 1.4}, {"measurement": "self-aminoacylation", "setting": "[2]", "value": 3.54}, {"measurement": "self-aminoacylation", "setting": "[3]", "value": 1.32}, {"measurement": "self-aminoacylation", "setting": "[4]", "value": 1.21}, {"measurement": "self-aminoacylation", "setting": "[5]", "value": 1.33}, {"measurement": "self-aminoacylation", "setting": "[6]", "value": 0.756}]}
{"sequence": "AUUCACCUAGGUCAUUGGGUG [Fam2.2 aminoacylation ribozyme variant]", "values": [{"measurement": "self-aminoacylation", "setting": "[1]", "value": 2.29}, {"measurement": "self-aminoacylation", "setting": "[2]", "value": 20.1}, {"measurement": "self-aminoacylation", "setting": "[3]", "value": 3.26}, {"measurement": "self-aminoacylation", "setting": "[4]", "value": 2.31}, {"measurement": "self-aminoacylation", "setting": "[5]", "value": 4.03}, {"measurement": "self-aminoacylation", "setting": "[6]", "value": 3.18}]}
{"sequence": "AUUCACCUAGGUCAUUUGGUG [Fam2.2 aminoacylation ribozyme variant]", "values": [{"measurement": "self-aminoacylation", "setting": "[1]", "value": 2.03}, {"measurement": "self-aminoacylation", "setting": "[2]", "value": 21.2}, {"measurement": "self-aminoacylation", "setting": "[3]", "value": 3.31}, {"measurement": "self-aminoacylation", "setting": "[4]", "value": 2.13}, {"measurement": "self-aminoacylation", "setting": "[5]", "value": 4.82}, {"measurement": "self-aminoacylation", "setting": "[6]", "value": 3.43}]}
{"sequence": "AUUCACCUAGGUCCCCGGGUG [Fam2.2 aminoacylation ribozyme variant]", "values": [{"measurement": "self-aminoacylation", "setting": "[1]", "value": 4.54}, {"measurement": "self-aminoacylation", "setting": "[2]", "value": 58.4}, {"measurement": "self-aminoacylation", "setting": "[3]", "value": 8.22}, {"measurement": "self-aminoacylation", "setting": "[4]", "value": 5.12}, {"measurement": "self-aminoacylation", "setting": "[5]", "value": 9.96}, {"measurement": "self-aminoacylation", "setting": "[6]", "value": 7.84}]}
{"sequence": "AUUCACCUAGGUCCUCCGGUG [Fam2.2 aminoacylation ribozyme variant]", "values": [{"measurement": "self-aminoacylation", "setting": "[1]", "value": 5.33}, {"measurement": "self-aminoacylation", "setting": "[2]", "value": 63.3}, {"measurement": "self-aminoacylation", "setting": "[3]", "value": 10.3}, {"measurement": "self-aminoacylation", "setting": "[4]", "value": 6.38}, {"measurement": "self-aminoacylation", "setting": "[5]", "value": 11.5}, {"measurement": "self-aminoacylation", "setting": "[6]", "value": 9.26}]}
{"sequence": "AUUCACCUAGGUCCUCGGGUA [Fam2.2 aminoacylation ribozyme variant]", "values": [{"measurement": "self-aminoacylation", "setting": "[1]", "value": 2.39}, {"measurement": "self-aminoacylation", "setting": "[2]", "value": 1.16}, {"measurement": "self-aminoacylation", "setting": "[3]", "value": 2.26}, {"measurement": "self-aminoacylation", "setting": "[4]", "value": 2.44}, {"measurement": "self-aminoacylation", "setting": "[5]", "value": 1.71}, {"measurement": "self-aminoacylation", "setting": "[6]", "value": 3}]}
{"sequence": "AUUCACCUAGGUCCUCGGUUG [Fam2.2 aminoacylation ribozyme variant]", "values": [{"measurement": "self-aminoacylation", "setting": "[1]", "value": 1.31}, {"measurement": "self-aminoacylation", "setting": "[2]", "value": 4.8}, {"measurement": "self-aminoacylation", "setting": "[3]", "value": 1.39}, {"measurement": "self-aminoacylation", "setting": "[4]", "value": 1.13}, {"measurement": "self-aminoacylation", "setting": "[5]", "value": 1.51}, {"measurement": "self-aminoacylation", "setting": "[6]", "value": 0.815}]}
{"sequence": "AUUCACCUAGGUCGCCGGGUG [Fam2.2 aminoacylation ribozyme variant]", "values": [{"measurement": "self-aminoacylation", "setting": "[1]", "value": 3.25}, {"measurement": "self-aminoacylation", "setting": "[2]", "value": 18.5}, {"measurement": "self-aminoacylation", "setting": "[3]", "value": 3.99}, {"measurement": "self-aminoacylation", "setting": "[4]", "value": 3.4}, {"measurement": "self-aminoacylation", "setting": "[5]", "value": 3.8}, {"measurement": "self-aminoacylation", "setting": "[6]", "value": 3.38}]}
{"sequence": "AUUCACCUAGGUCGUCGGGAG [Fam2.2 aminoacylation ribozyme variant]", "values": [{"measurement": "self-aminoacylation", "setting": "[1]", "value": 1.36}, {"measurement": "self-aminoacylation", "setting": "[2]", "value": 0.385}, {"measurement": "self-aminoacylation", "setting": "[3]", "value": 0.924}, {"measurement": "self-aminoacylation", "setting": "[4]", "value": 0.982}, {"measurement": "self-aminoacylation", "setting": "[5]", "value": 1.27}, {"measurement": "self-aminoacylation", "setting": "[6]", "value": 0.943}]}
{"sequence": "AUUCACCUAGGUCGUCGGGCG [Fam2.2 aminoacylation ribozyme variant]", "values": [{"measurement": "self-aminoacylation", "setting": "[1]", "value": 3.2}, {"measurement": "self-aminoacylation", "setting": "[2]", "value": 15.2}, {"measurement": "self-aminoacylation", "setting": "[3]", "value": 2.56}, {"measurement": "self-aminoacylation", "setting": "[4]", "value": 3.39}, {"measurement": "self-aminoacylation", "setting": "[5]", "value": 4.5}, {"measurement": "self-aminoacylation", "setting": "[6]", "value": 2.76}]}
{"sequence": "AUUCACCUAGGUCGUCGGGGG [Fam2.2 aminoacylation ribozyme variant]", "values": [{"measurement": "self-aminoacylation", "setting": "[1]", "value": 2.9}, {"measurement": "self-aminoacylation", "setting": "[2]", "value": 8.18}, {"measurement": "self-aminoacylation", "setting": "[3]", "value": 3.07}, {"measurement": "self-aminoacylation", "setting": "[4]", "value": 3.11}, {"measurement": "self-aminoacylation", "setting": "[5]", "value": 3.38}, {"measurement": "self-aminoacylation", "setting": "[6]", "value": 3.53}]}
